± gives the uncertainty stated by the source.

A short description of the data set: protein stability index of a GFP-peptide fusion (yeast GPS) (PSI 1-4); higher = more stable; sorted into four equal gates, so the index is relative within each strain. An outline of the steps:
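The protein stability index combines read frequencies across sorting gates, each weighted by its gate number and then summed. To obtain those frequencies, a pooled yeast library of GFP fusions to tiled 17-residue yeast protein peptides, on a plasmid also expressing Cherry, was grown to mid-log phase in leucine-free medium. The cells were sorted into four equal gates by GFP/Cherry ratio before plasmid amplification by PCR and Illumina sequencing.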

For the sequence MAHENVWFSHPRRYGKG [RPS29A], the protein stability index by setting is: (doa10∆) 3.39 ± 0.24; (pdr5∆) 2.95 ± 0.17; (san1∆) 3.18 ± 0.14; (ubr1∆) 3.18 ± 0.23.

Regarding RKIEAETRNGKVKNQGA [YCS4], the protein stability index came out at 2.89 ± 0.14 (doa10∆), 3.43 ± 0.12 (pdr5∆), 3.12 ± 0.12 (san1∆) and 3.22 ± 0.13 (ubr1∆).

LNPQVADINKNFLSVIT [RPN2]: the protein stability index reads like this: (doa10∆) 1.81 ± 0.065; (pdr5∆) 2.19 ± 0.053; (san1∆) 1.98 ± 0.071; (ubr1∆) 1.95 ± 0.053.

With QILSTVVEDKPLLSKKE [SMB1], the protein stability index (doa10∆) came out at 1.15 ± 0.061, the protein stability index (pdr5∆) was 1.19 ± 0.042, the protein stability index (san1∆) turned out to be 1.19 ± 0.12 and the protein stability index (ubr1∆) amounted to 1.48 ± 0.054.

MNERDWRILKEDYAIVT [PRP28]: the protein stability index runs as follows: (doa10∆) 3.42 ± 0.22; (pdr5∆) 3.16 ± 0.23.

As to SLKNVTEKNREIYKQLN [YIL149C/MLP2], the protein stability index runs as follows: (doa10∆) 3.31 ± 0.097; (pdr5∆) 2.76 ± 0.11; (san1∆) 3.18 ± 0.056; (ubr1∆) 2.99 ± 0.05.

As to PQIAQLPLATQQQVLNK [SNF5], the protein stability index was 1.94 ± 0.074 (doa10∆), 2.3 ± 0.075 (pdr5∆), 2 ± 0.13 (san1∆) and 2.17 ± 0.068 (ubr1∆).

Regarding MSFSSLYKTFFKRNAVF [QCR9], the protein stability index came to 1.67 ± 0.066 (doa10∆), 1.33 ± 0.053 (pdr5∆), 1.34 ± 0.091 (san1∆) and 1.32 ± 0.048 (ubr1∆).

ERKEREDFQKRQQKLLE [SWI1]: the protein stability index (doa10∆) stood at 3.27 ± 0.073, the protein stability index (pdr5∆) amounted to 3.32 ± 0.06, the protein stability index (san1∆) worked out at 3.34 ± 0.049 and the protein stability index (ubr1∆) worked out at 3.2 ± 0.048.

For DDAMEINGEDPANNHQL [SMX2], the protein stability index reads like this: (doa10∆) 3.38 ± 0.076; (pdr5∆) 3.02 ± 0.086; (san1∆) 3.3 ± 0.047; (ubr1∆) 3.44 ± 0.071.

(Values after the supplement of paper PMC9732359.)
